Data on five molecules can be found in US20240132577A1 (US Dept. of Health and Human Services, published 2024).

Several values for one entry are separate records, joined by “and”; a condition that tells them apart may be missing. Equal values may be shown once. Read-outs that look alike come from different tables or passages of the source.

Experiment in all cases: cell-based or functional assay
The target of test [1] is SARS-CoV-2 S protein (C-terminally truncated, on pseudotyped virus) (SARS-CoV-2 (Wuhan-Hu-1), UniProt P0DTC2 14-1254).
Test [2] concerns the target SARS-CoV-2 S protein K417N + E484K + N501Y (on pseudotyped virus) (SARS-CoV-2, UniProt P0DTC2 14-1254).
The target in test [3] is SARS-CoV-2 S protein R683G (on pseudotyped virus) (SARS-CoV-2, UniProt P0DTC2 14-1254).
Test [4] deals with SARS-CoV-2 S protein E484K (on pseudotyped virus) (SARS-CoV-2, UniProt P0DTC2 14-1254).
Test [5] deals with T1, SARS-CoV-2 S protein (C-terminally truncated, on pseudotyped virus) (SARS-CoV-2 (Wuhan-Hu-1), UniProt P0DTC2 14-1254). The source holds these as a separate data set.
In test [6] the target is SARS-CoV-2 S protein K417N (on pseudotyped virus) (SARS-CoV-2, UniProt P0DTC2 14-1254).
Test [7] has as its target SARS-CoV-2 S protein N501Y (on pseudotyped virus) (SARS-CoV-2, UniProt P0DTC2 14-1254).
Test [8] has as its target T1, SARS-CoV-2 S protein (C-terminally …). The source holds these as a separate data set.

B1: Nb21 (VHH)
VHH: QVQLVESGGGLVQAGGSLRLSCAVSGLGAHRVGWFRRAPGKEREFVAAIGANGGNTNYLDSVKGRFTISRDNAKNTIYLQMNSLKPQDTAVYYCAARDIETAEYTYWGQGTQVTVSS
Turning to B1, in test [1], the “IC50 (pseudovirus neutralization)” value is 1900 ng/ml and 141 nM; the “IC90 (pseudovirus neutralization)” value is 3230 ng/ml and 239 nM.

B2: msNb12-tri-IgG2a (Fc fusion)
chain: QVKLEESGGGSVQAGGSLRLICTAPGLTHNNCGLDWYRRAPGKEREFVSSISADGTTSYADSVKGRFTISKDKVEDTVYLQMNSLKPEDTAIYSCKTAFPYFGNSCVLDYWGQGTSVTVSSGGGGSGGGGSGGGGSQVKLEESGGGSVQAGGSLRLICTAPGLTHNNCGLDWYRRAPGKEREFVSSISADGTTSYADSVKGRFTISKDKVEDTVYLQMNSLKPEDTAIYSCKTAFPYFGNSCVLDYWGQGTSVTVSSGGGGSGGGGSGGGGSQVKLEESGGGSVQAGGSLRLICTAPGLTHNNCGLDWYRRAPGKEREFVSSISADGTTSYADSVKGRFTISKDKVEDTVYLQMNSLKPEDTAIYSCKTAFPYFGNSCVLDYWGQGTSVTVSSEPKIPQPQPKPQPQPQPQPKPQPKPEPECTCPKCPAPELLGGPSVFLFPPKPKDTLMISRTPEVTCVWDVSHEDPEVKFNWYVDGVEVHNAKTKPREEQYNSTYRWSVLTVLHQDWLNGKEYKCKVSNKALPAPIEKTISKAKGQPREPQVYTLPPSREEMTKNQVSLTCLVKGFYPSDIAVEWESNGQPENNYKTTPPVLDSDGSFFLYSKLTVDKSRWQQGNVFSCSVMHEALHNHYTQKSLSLSPGKHHHHHH
Take B2: the “IC50 (variant pseudovirus neutralization)” value is 0.09 nM in test [2]; 0.178 nM in test [3]; 0.149 nM in test [4]; 0.091 nM in test [5]; 0.068 nM in test [6]; 0.082 nM in test [7]. Moreover, the “IC50 (pseudovirus neutralization)” value in test [8] is 4.71 ng/ml and 64.8 nM. Besides, in test [8], the “IC90 (pseudovirus neutralization)” value is 74 ng/ml and 1.02 µM.

B3: Nb4 (VHH)
VHH: QVQLVESGGGLVQAGGSLRLSCVASGSGFEPNAMGWYRQAPGKQRELVAGITSGGNANYADSVKGRFTISRDNVKNTVYLQMNSLKPEDTAVYYCNAVGPRFNPRGSPTNYWGQGTQVTVSS
With B3, in test [1], the “IC50 (pseudovirus neutralization)” value was 41 nM and 554 ng/ml; the “IC90 (pseudovirus neutralization)” value is 4490 ng/ml and 332 nM.

B4: Nb56-tri-IgG1 (Fc fusion)
chain: QVQLQESGGGLVQAGDSLRLSCVASERTFRRYGMGWFRQAPGKEREFVAAVDRSHTKTGYADFVKGRFTISTNYENMVYLQMNSLKPEDTAVYYCAAPSYEKGSDPTSWNTDRGYDYWGQGTQVTVSSGGGGSGGGGSGGGGSQVQLQESGGGLVQAGDSLRLSCVASERTFRRYGMGWFRQAPGKEREFVAAVDRSHTKTGYADFVKGRFTISTNYENMVYLQMNSLKPEDTAVYYCAAPSYEKGSDPTSWNTDRGYDYWGQGTQVTVSSGGGGSGGGGSGGGGSQVQLQESGGGLVQAGDSLRLSCVASERTFRRYGMGWFRQAPGKEREFVAAVDRSHTKTGYADFVKGRFTISTNYENMVYLQMNSLKPEDTAVYYCAAPSYEKGSDPTSWNTDRGYDYWGQGTQVTVSSDKTHTCPPCPAPELLGGPSVFLFPPKPKDTLMISRTPEVTCVWDVSHEDPEVKFNWYVDGVEVHNAKTKPREEQYNSTYRWSVLTVLHQDWLNGKEYKCKVSNKALPAPIEKTISKAKGQPREPQVYTLPPSREEMTKNQVSLTCLVKGFYPSDIAVEWESNGQPENNYKTTPPVLDSDGSFFLYSKLTVDKSRWQQGNVFSCSVMHEALHNHYTQKSLSLSPGKHHHHHH
In the case of B4, the “IC50 (variant pseudovirus neutralization)” value amounted to 0.014 nM in test [2]; 0.008 nM in test [3]; 0.037 nM in test [4]; 0.043 nM in test [5]; 0.021 nM in test [6]; 0.028 nM in test [7]. Moreover, the “IC50 (pseudovirus neutralization)” value in test [8] was 3.91 ng/ml and 54.5 nM. For the same molecule, the “IC90 (pseudovirus neutralization)” value in test [8] was 18.6 ng/ml and 260 nM.

B5: Nb19-tri-IgG1 (Fc fusion)
chain: QVQLQESGGGLVQAGGSLRLSCAASGSGFSIHAMGWYRQAPGKQREFVAVVGHKTNYADSVKGRFTISRDVGKNTVELQMNSLKVEDTAVYYCYCNTIVTMTGVPDAVWGQGTQVTVSSGGGGSGGGGSGGGGSQVQLQESGGGLVQAGGSLRLSCAASGSGFSIHAMGWYRQAPGKQREFVAVVGHKTNYADSVKGRFTISRDVGKNTVELQMNSLKVEDTAVYYCYCNTIVTMTGVPDAVWGQGTQVTVSSGGGGSGGGGSGGGGSQVQLQESGGGLVQAGGSLRLSCAASGSGFSIHAMGWYRQAPGKQREFVAVVGHKTNYADSVKGRFTISRDVGKNTVELQMNSLKVEDTAVYYCYCNTIVTMTGVPDAVWGQGTQVTVSSDKTHTCPPCPAPELLGGPSVFLFPPKPKDTLMISRTPEVTCVWDVSHEDPEVKFNWYVDGVEVHNAKTKPREEQYNSTYRWSVLTVLHQDWLNGKEYKCKVSNKALPAPIEKTISKAKGQPREPQVYTLPPSREEMTKNQVSLTCLVKGFYPSDIAVEWESNGQPENNYKTTPPVLDSDGSFFLYSKLTVDKSRWQQGNVFSCSVMHEALHNHYTQKSLSLSPGKHHHHHH
On to B5, for which the “IC50 (variant pseudovirus neutralization)” value in test [2] amounted to 0.115 nM; in test [3], 0.003 nM; in test [4], 0.095 nM; in test [5] it was 0.012 nM; in test [6], 0.006 nM; in test [7] it was 0.01 nM. Besides, the “IC50 (pseudovirus neutralization)” value in test [8] was 0.65 ng/ml and 9.38 nM. Moreover, the “IC90 (pseudovirus neutralization)” value in test [8] was 3.96 ng/ml and 57.6 nM.
